Series [1] addresses T1, TIAR (TIAR-b, short isoform) (UniProt Q01085 1-375).
T1 sequence: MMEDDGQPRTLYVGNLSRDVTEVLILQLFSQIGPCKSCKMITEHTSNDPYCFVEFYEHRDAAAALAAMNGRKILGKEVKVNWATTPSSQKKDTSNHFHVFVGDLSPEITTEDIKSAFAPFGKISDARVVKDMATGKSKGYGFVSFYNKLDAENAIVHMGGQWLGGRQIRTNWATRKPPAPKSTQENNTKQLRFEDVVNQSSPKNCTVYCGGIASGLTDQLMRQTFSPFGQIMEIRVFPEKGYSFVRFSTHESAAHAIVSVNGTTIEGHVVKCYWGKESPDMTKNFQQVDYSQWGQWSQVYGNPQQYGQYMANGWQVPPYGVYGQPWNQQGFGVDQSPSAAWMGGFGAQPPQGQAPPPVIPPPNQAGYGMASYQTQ
Nature of the series: UV crosslinking.

Series [2] addresses T1, TIAR (TIAR-b, short isoform). Nature of the series: UV crosslinking. This is another data set of the same source.
The target in a further series is T2, TIAR RRM1 (UniProt Q01085 2-93).
T2 sequence: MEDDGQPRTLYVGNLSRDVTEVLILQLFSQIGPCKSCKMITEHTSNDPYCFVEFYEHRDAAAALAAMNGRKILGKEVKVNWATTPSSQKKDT
In words: UV crosslinking titration.

Another series deals with T3, TIA-1 (UniProt P31483 1-386).
T3 sequence: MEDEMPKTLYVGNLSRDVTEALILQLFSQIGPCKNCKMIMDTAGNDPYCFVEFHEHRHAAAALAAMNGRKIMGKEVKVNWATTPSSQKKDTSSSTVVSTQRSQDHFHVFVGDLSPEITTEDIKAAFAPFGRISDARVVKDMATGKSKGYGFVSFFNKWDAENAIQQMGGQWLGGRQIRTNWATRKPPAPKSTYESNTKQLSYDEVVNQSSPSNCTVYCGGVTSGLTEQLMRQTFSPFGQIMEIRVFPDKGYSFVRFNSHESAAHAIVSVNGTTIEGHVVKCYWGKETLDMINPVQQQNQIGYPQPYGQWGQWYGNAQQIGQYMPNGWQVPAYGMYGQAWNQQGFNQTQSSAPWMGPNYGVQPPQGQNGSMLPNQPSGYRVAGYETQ
In words: UV crosslinking.

Series [3] concerns the target T1, TIAR (TIAR-b, short isoform). In words: UV crosslinking + immunoprecipitation.
Series [4] has the same target. In words: competition.
In another series the target is HuR (UniProt Q15717 1-326). In words: UV crosslinking.
HuR, sequence (Q15717 whole entry, canonical isoform): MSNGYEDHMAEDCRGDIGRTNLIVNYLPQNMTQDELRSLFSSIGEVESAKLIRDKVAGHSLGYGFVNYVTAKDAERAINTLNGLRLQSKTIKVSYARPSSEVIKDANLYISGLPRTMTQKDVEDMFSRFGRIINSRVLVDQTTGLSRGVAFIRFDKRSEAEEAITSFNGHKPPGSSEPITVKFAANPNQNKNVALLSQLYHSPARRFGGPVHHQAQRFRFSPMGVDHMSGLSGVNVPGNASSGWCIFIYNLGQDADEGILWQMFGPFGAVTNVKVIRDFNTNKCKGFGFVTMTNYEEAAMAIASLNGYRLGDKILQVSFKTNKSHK
The target of series [5] is T1, TIAR (TIAR-b, short isoform). In words: EMSA. For orientation: In EMSA bound probe runs differently from free probe, usually more slowly.
The target is the same in series [6]. Nature of the series: UV crosslinking. This is another data set of the same source.
Another series has as its target T4, TIAR RRM2,3 (UniProt Q01085 94-375).
T4 sequence: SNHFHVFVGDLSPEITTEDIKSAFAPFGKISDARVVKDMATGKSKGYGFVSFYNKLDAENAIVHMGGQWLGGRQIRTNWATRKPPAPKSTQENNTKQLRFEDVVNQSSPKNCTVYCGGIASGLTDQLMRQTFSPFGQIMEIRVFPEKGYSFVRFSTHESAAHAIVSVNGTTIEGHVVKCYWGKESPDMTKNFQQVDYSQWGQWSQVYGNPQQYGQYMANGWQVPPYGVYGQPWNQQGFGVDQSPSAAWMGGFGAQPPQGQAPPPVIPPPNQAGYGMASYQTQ
In words: UV crosslinking titration.

Experimental findings from publication PMC1184220 are described below.

B1: VEGF-S2 (ssDNA)
DNA: CTTTTTTAATTTTAATATTTGTTATCATTTATTTATT
As for B1, the binding result in [1] was “binds”.

B2: IL8-AS1 (ssDNA)
DNA: TTAATATCTAAAATAAAATAAATT
On to B2, for which the binding result in [2] is given as “no binding”.

B3: T7tiar full-length transcript (ssRNA)
RNA: GGGAUAGUAUUGUUUAUAUUGUUCCAAUACGAAAAAAAAAAAAUACUAUUCUCAUCUU
Take B3: the binding result in [1] is recorded as “binds”.

B4: VEGF-AS1b (ssDNA)
DNA: AAAATGCTTTTTTTTTTTTA
With B4, the binding result in series [2] is “binds”.

B5: rVEGF-AS1 (ssRNA)
RNA: AAAAUGCUUUUUUUUUUUUA
As for B5, the binding result with TIAR RRM1 was “no binding”; with TIA-1 it was “binds”.

B6: T7tiar/T7 partial duplex template (mixed)
DNA 1: AAGATGAGAATAGTATTTTTTTTTTTTCGTATTGGAACAATATAAACAATACTATCCCTATAGTGAGTCGTATTA
DNA 2: TAATACGACTCACTATAGGG
Consider B6, for which, in series [3], the binding result was “binds”.

B7: VEGF-AS4 (ssDNA)
DNA: TAAAAATAAATATGTACTACGGAATATCTCGAAAAAC
For the molecule B7, the binding result in series [2] is on record as “no binding”.

B8: VEGF-AS1b.2 (ssDNA)
DNA: AAAATGCTTTTTTT
Turning to B8, the binding result in series [4] is on record as “no binding”.

B9: oligo(dT)15 (ssDNA)
DNA: TTTTTTTTTTTTTTT
In the case of B9, the binding result in series [2] is “binds”.

B10: VEGF-AS2 (ssDNA)
DNA: AATAAATAAATGATAACAAATATTAAAATTAAAAAAG
For the molecule B10, the binding result (with HuR; with TIAR RRM1; in series [5]; in the series with TIA-1) was “no binding” throughout.

B11: VEGF-S2/VEGF-AS2 duplex (dsDNA)
DNA 1: B1 DNA
DNA 2: B10 DNA
Turning to B11, in series [6], the binding result was “no binding”.

B12: VEGF-AS1 (ssDNA)
DNA: AGAATTAAATTCTTTAATACAAAATGCTTTTTTTTTTTTA
B12: the results for the binding result with HuR and in the series with TIA-1 were “no binding” and “binds”, respectively. The affinity with TIAR RRM2,3, expressed as Kd, was 3 nM.
